Molecular target: USH1C, Q9Y6N9-1
Sequence (Q9Y6N9 whole entry): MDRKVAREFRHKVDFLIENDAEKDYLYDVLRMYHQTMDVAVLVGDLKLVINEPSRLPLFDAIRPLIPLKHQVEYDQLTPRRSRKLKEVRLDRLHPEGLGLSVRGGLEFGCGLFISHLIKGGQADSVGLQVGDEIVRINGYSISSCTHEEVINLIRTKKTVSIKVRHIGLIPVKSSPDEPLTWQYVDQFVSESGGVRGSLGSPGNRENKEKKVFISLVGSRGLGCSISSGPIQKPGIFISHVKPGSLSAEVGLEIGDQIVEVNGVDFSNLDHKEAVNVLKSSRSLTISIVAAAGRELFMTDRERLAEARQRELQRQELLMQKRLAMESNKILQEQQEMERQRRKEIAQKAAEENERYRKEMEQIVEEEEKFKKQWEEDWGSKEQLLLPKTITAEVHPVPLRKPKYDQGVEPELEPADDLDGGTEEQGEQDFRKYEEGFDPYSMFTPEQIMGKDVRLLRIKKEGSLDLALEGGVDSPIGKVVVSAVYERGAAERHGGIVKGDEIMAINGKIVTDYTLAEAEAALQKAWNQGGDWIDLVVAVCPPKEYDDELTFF

Substance	effect of a mutation on the interaction
Cadherin-23 (Homo sapiens), Q9H251 L3225Q	with no effect
Cadherin-23 (Homo sapiens), Q9H251 L3228Q	with no effect

Further lines, results first:

effect of a mutation on the interaction	Substance
decreasing interaction strength	Cadherin-23 (Homo sapiens), Q9H251 L3219Q
decreasing interaction strength	Cadherin-23 (Homo sapiens), Q9H251 Y3222E
with no effect	Cadherin-23 (Homo sapiens), Q9H251 L3223Q
decreasing interaction strength	Cadherin-23 (Homo sapiens), Q9H251 L3215Q

Molecular target: USH1C, Q9Y6N9-1
Remark: another data set of the same source

effect of a mutation on the interaction	Substance
disrupting interaction strength	Cadherin-23 (Homo sapiens), Q9H251 L3188Q;L3215Q

— IntAct's records for PubMed 22879593
